# Test results reported in the nanobody polyreactivity screen of Harvey et al. (2022).
# Experiment: yeast display, Sf9 membrane polyspecificity reagent, FACS + sequencing; frameworks hold sequencing errors
# Procedure, shortened: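 Polyreactivity labels are assigned by the sorting gate from which each nanobody was recovered. The gates were low and high (top ~1%), set on anti-HA fluorescence for expression and streptavidin fluorescence for reagent binding. Before sorting, galactose-induced (36–48 hours) yeast display cells were stained for 1 hour at 4 °C with 10% biotinylated, detergent-solubilized Sf9 membrane reagent.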
row,Sequence,polyreactivity (PSR sort gate)
1,QVQLVESGGGLVQAGGSLRLSCADSGSTFLVYSMGWYRQAPGKERELVAVIDNGGDTYYADSVKGRFTISRDNAKNTVYLQMNSLKPEDTEVYYCAADLSYLGYWEYDYWGQGSQVTVSS,low polyreactivity
2,QVQLVESGGGLVQAGGSLRLSCADSGSTFTRYGMGWYRQAPGKERELVAAITTSGSSTYYADSVKGRYTISRDNAKNTVYLQMNSLKPEDTAVYYCAADWSSWGFDYWGQGTQVTVSS,low polyreactivity
3,QVQLVESGGGLVQAGGSLRLSCADSGSTFWYNAMGWYRQAPGKERELVAAITWSASRTYYADSVKGRFTISRDNAKNTVYLQMNSLKPEDTAVYYCAKASPRYKYFTGDYWGQGTQVTVSS,high polyreactivity
4,QVQLVESGGGLVQAGGSLRLSCADSGSTLQVNAMGWYRQAPGKERELVATISFSGGSTYYADSVKGRFTISRDNAKNTVYLQMNSLNPEDTAVYYCNADSFVSWYNQFWYQATYDYWGQGTQVTVSS,low polyreactivity
5,QVQLVESGGGLVQAGGSLRLSCADSGSTPVYAMGWYIQAPGKERELVAAIRRRASSTYYADSVKGRLTISRDNAKNTVYLQMNSLKPEDTAVYYCAVGRLNGVLLGYWGQGTQVTVSS,high polyreactivity
6,QVQLVESGGGLVQAGGSLRLSCADSVIIFRVYVMGCYRQAPGKERELVDAISTSGGRTSYADSVKGRFTISRDNAKNTVYLQMNSLKPEDTAVYYCAARPLYSYSQWGYGYWGQGTQVTVSS,high polyreactivity
7,QVQLVESGGGLVQAGGSLRLSCADTGSTFYNYAMGWYRQAHGKERELVAAISSGGSTNYADSVKGLFTISRDNAKNTVYLKMNSLKPEDTAVYYCARRHRVYTSRIGHDYWGQGTQGTVSS,low polyreactivity
8,QVQLVESGGGLVQAGGSLRLSCAGLRIYLPGYARGWYRQAPGKERELVAVISGSGSGTYYADSVKGRFTISRDNAKNTVYLQMNSLKPEDTAVYYCAADDVGRGSTPYDYWGQGTQVTVSS,high polyreactivity
9,QVQLVESGGGLVQAGGSLRLSCAGSGFIFHLYAMGWYRPAPGKERELVAAIRISDGSTYYADSVKGRFTISRDNAKNTVYLLMNSLKPEDTAVYYCNRVRSSYVYVSRFDYWGQGTQVTVSS,high polyreactivity
10,QVQLVESGGGLVQAGGSLRLSCAGSGFTFAYYAMGWYRQAPGKERELVAAITRGGGRTFYADSVKGRFTISRDNAKNTVYLQMNSLKPEDTAVYYCAAVKDTTNSRGYGYWGQGTQVTVSS,high polyreactivity
11,QVQLVESGGGLVQAGGSLRLSCAGSGFTFGKNAMGWYRQAPGKERELVAANSGRGGRTFYADSVKGRFTISRDNAKNTVYLQMNSLKPEDTADYYCAAQRYYDNQYPYEYWGQGTQVTVSS,high polyreactivity
12,QVQLVESGGGLVQAGGSLRLSCAGSGGIIGSNAMGWYRQAPGKERELVAAINTRGGRTYYADSVKWRFTISRDNAKNTVYLQMNILKPEDTAVYYCATVSYSSRRDRYDYWGQGTQVTVSS,high polyreactivity
13,QVQLVESGGGLVQAGGSLRLSCAGSGRTFQYYAMGCYRQAPGKEMELVAGITGGGSTYYADSVKGRFTISRDNAKNTVYLQMNSLKPEDTAVYYCAADRSYYGYGYWGQGTQVTVSS,low polyreactivity
14,QVQLVESGGGLVQAGGSLRLSCAGSGRTLVLYDRGWSRQAHGKARELVAAITWSGDSTYYADSVKGRFTISRDNAKNTVYLQMNSLKPEDTQVYYCSATYLNAKRGLRDDYWGQGTQVTVSS,low polyreactivity
15,QVQLVESGGGLVQAGGSLRLSCAHSGFTFTYYAMGWYRQAPGKEREFVAGISRSGGSTYYADSVKGRFTISRDIAKNTVYLQMNSLKPEDTAVYYCAATAYSPRGKRYDSWGQGTQVTVSS,high polyreactivity
16,QVQLVESGGGLVQAGGSLRLSCAPAGRTFNGYAMGWYRQAPGKERELVASITLRGGSTYYADSVKGRFTISRDNAKNTVYLQMNSLKPEDTAVYYCNARPHTRRYTFTYGYWGQGTQVTVSS,high polyreactivity
17,QVQLVESGGGLVQAGGSLRLSCAPSGFIFDYNAMGWYRQAPGKERELVAAISISGGGTYYADSVKGRFTISRDNAKNTVYLQMNSLKPEDTAVYYCATAGRYDAYDYWGQGTQVTVSS,low polyreactivity
